From publication PMC10613254, “Mechanism of synergistic activation of Arp2/3 complex by cortactin and WASP-family proteins” (Nature Communications, 2023)

Legend:
[1] = biological target: F-actin (skeletal α-actin, polymerized) (rabbit, UniProt P68135 1-377); experiment: co-sedimentation; increasing concentrations of cortactin constructs with constant F-actin (4 uM), ATP-supplemented KMEI buffer, 1 h at RT, 30 min at 278,800 g, SDS-PAGE densitometry; conditions: both partners purified
[2] = biological target: Arp3 (subunit of bovine Arp2/3 complex) (bovine, UniProt P61157 1-418); experiment: cryo-EM structure; Bovine Arp2/3 complex (9.0 uM) mixed with Cort_(1-76) (45 uM) in ATP-supplemented KMEI buffer (10 mM imidazole pH 7.0, 50 mM KCl, 2 mM MgCl2, 1 mM EGTA, 0.2 mM ATP), 0.0025% NP-40; conditions: both partners purified

| binding result [1] | binding result [2] | Binder |
| --- | --- | --- |
| binds | – | Cort_(1-79/154-401) (domain or fragment, mouse cortactin, UniProt Q60598, residues 1-79, joined directly to residues 154-401; mouse cortactin, UniProt Q60598, residues 154-401; Internal deletion of residues 80-153; fragments ligated through overhangs coding residues 77-79; source: E. coli ArticExpress (DE3), purified (amylose, TEV cleavage, Ni-NTA, size exclusion)) MWKASAGHAVSITQDDGGADDWETDPDFVNDVSEKEQRWGAKTVQGSGHQEHINIHKLRENVFQEHQTLKEKELETGPKYSSGFGGKYGVQADRVDKSAVGFDYQGKTEKHESQKDYSKGFGGKYGIDKDKVDKSAVGFEYQGKTEKHESQKDYVKGFGGKFGVQTDRQDKCALGWDHQEKLQLHESQKDYKTGFGGKFGVQSERQDSSAVGFDYKERLAKHESQQDYAKGFGGKYGVQKDRMDKNASTFEEVVQVPSAYQKTVPIEAVTSKTSNIRANFENLAKEREQEDRRKAEAERAQRMAKERQEQEEARRKLEEQARAKKQT |
| binds | – | Cort_(1-401) (domain or fragment, mouse cortactin, UniProt Q60598, residues 1-401; source: E. coli ArticExpress (DE3), purified (amylose, TEV cleavage, Ni-NTA, size exclusion)) MWKASAGHAVSITQDDGGADDWETDPDFVNDVSEKEQRWGAKTVQGSGHQEHINIHKLRENVFQEHQTLKEKELETGPKASHGYGGKFGVEQDRMDRSAVGHEYQSKLSKHCSQVDSVRGFGGKFGVQMDRVDQSAVGFEYQGKTEKHASQKDYSSGFGGKYGVQADRVDKSAVGFDYQGKTEKHESQKDYSKGFGGKYGIDKDKVDKSAVGFEYQGKTEKHESQKDYVKGFGGKFGVQTDRQDKCALGWDHQEKLQLHESQKDYKTGFGGKFGVQSERQDSSAVGFDYKERLAKHESQQDYAKGFGGKYGVQKDRMDKNASTFEEVVQVPSAYQKTVPIEAVTSKTSNIRANFENLAKEREQEDRRKAEAERAQRMAKERQEQEEARRKLEEQARAKKQT |
| – | binds | Cort_(1-76), cortactin N-terminal acidic domain (NTA, residues 1-76) (domain or fragment, mouse cortactin, UniProt Q60598, residues 1-76; the methods say mouse cDNA; Cloned between BamHI and EcoRI of pMAL-c6T; also called cortactin's N-terminal domain; source: E. coli ArticExpress (DE3), purified (amylose, TEV cleavage, Ni-NTA, size exclusion)) MWKASAGHAVSITQDDGGADDWETDPDFVNDVSEKEQRWGAKTVQGSGHQEHINIHKLRENVFQEHQTLKEKELET |
| binds | – | Cort_(1-227) (domain or fragment, source: E. coli ArticExpress (DE3), purified (amylose, TEV cleavage, Ni-NTA, size exclusion)) MWKASAGHAVSITQDDGGADDWETDPDFVNDVSEKEQRWGAKTVQGSGHQEHINIHKLRENVFQEHQTLKEKELETGPKASHGYGGKFGVEQDRMDRSAVGHEYQSKLSKHCSQVDSVRGFGGKFGVQMDRVDQSAVGFEYQGKTEKHASQKDYSSGFGGKYGVQADRVDKSAVGFDYQGKTEKHESQKDYSKGFGGKYGIDKDKVDKSAVGFEYQGKTEKHESQKD |
